Test results taken from the supplement of paper PMC10126150.
± gives the standard deviation of the averaged measurements.

test system: ATP; assay: switch fluorescence ratio, 500 uM ATP over buffer (Cy3 cluster intensity, sum of 5 cycles each) (fold (ratio)); higher = stronger signal-on switching upon ATP binding; sequences stand for … in TCGTCGGCAGCGTCAGATGTGTATAAGAGACAGTTTTTTTTTTTTTTTTTTTTTTTTT…TC; conditions: aptamer strand: ATP DNA aptamer (quencher-CACCTGGGGGAGTATTGCGGAGGAAGG + anchor), 100 nM annealed; ATP concentration: 500 uM
In short: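 Cy3-labelled switching-strand clusters on a modified Illumina MiSeq flow-cell were annealed to 100 nM quencher-labelled ATP aptamer, imaged in selection buffer, then imaged after 15 min with 500 uM ATP at 22 °C. Five buffer/ATP cycles ran, with NaOH stripping and re-annealing between them. The fluorescence ratio is summed target-cycle over summed buffer-cycle Cy3 intensity per cluster, averaged per switch-domain sequence. Clusters outside 100-1000 RFU were excluded.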
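Note: ATP exposure 15 min at 22 °C before imaging.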

Sequence	switch fluorescence ratio
TTAATTCATG	1.01 ± 0.017
TTAATTGGGG	1.06 ± 0.1
TTAATTTATC	0.9982 ± 0.0026
TTAATTTGGT	0.971 ± 0.03
TTACAAGGGC	1.013 ± 0.0087
TTACAAGTTT	1.14 ± 0.19
TTACACAGGT	1.12 ± 0.067
TTACAGCTAG	1.01 ± 0.056
TTACAGGGG	1.18 ± 0.027
TTACAGGTTC	1.031 ± 0.0019
TTACAGTTCA	1.026 ± 0.0058
TTACATGTTG	1.04 ± 0.04
TTACCATTAG	0.965 ± 0.011
TTACCCCGTG	1.13 ± 0.022
TTACCGGGCA	1.033 ± 0.0093
TTACCGGGCT	1.051 ± 0.004
TTACCTTTCT	1.64 ± 0.64
TTACGAAAAG	1.08 ± 0.14
TTACGAAACG	1.08 ± 0.045
TTACGAAAGA	1.07 ± 0.032
TTACGATGTG	1.018 ± 0.0091
TTACGGATTC	1.39 ± 0.5
TTACGGGAAT	1.08 ± 0.1
TTACGGGGGA	1.03 ± 0.072
TTACGGGTAT	1.01 ± 0.039

Sequence	switch fluorescence ratio
TTACGGGTGC	1.19 ± 0.033
TTACGGTATA	1.17 ± 0.038
TTACGTAGAT	1.12 ± 0.077
TTACGTGCTG	0.9806 ± 0.0083
TTACGTGGTT	1.07 ± 0.026
TTACTAAGGG	1.04 ± 0.04
TTACTAGATG	1.02 ± 0.021
TTACTATGTA	1.02 ± 0.019
TTACTGAGGT	0.992 ± 0.017
TTACTGATCG	1.025 ± 0.0073
TTACTGCGGT	1.014 ± 0.0034
TTACTGCTCG	1.01 ± 0.03
TTACTGTGTT	1 ± 0.034
TTACTTAGGG	1.14 ± 0.17
TTACTTATTT	1.04 ± 0.035
TTACTTCATA	1.021 ± 0.0045
TTACTTGAAT	0.969 ± 0.039
TTACTTGGGA	1 ± 0.012
TTACTTTATT	1.05 ± 0.053
TTACTTTTAC	1.13 ± 0.14
TTACTTTTGC	1.01 ± 0.065
TTAGAAAAGG	1 ± 0.032
TTAGAACACA	0.983 ± 0.0063
TTAGAAGGGA	1.01 ± 0.056
TTAGACGTTC	0.99809 ± 0.00032

Sequence	switch fluorescence ratio
TTAGAGATTC	0.961 ± 0.031
TTAGAGCTGG	1.01 ± 0.027
TTAGAGCTTC	1.01 ± 0.038
TTAGAGGATT	1.004 ± 0.007
TTAGAGGGA	1 ± 0.047
TTAGAGGGGA	0.985 ± 0.031
TTAGAGGGTA	0.9736 ± 0.0085
TTAGAGGGTC	0.9952 ± 0.0013
TTAGATCATG	1.01 ± 0.023
TTAGATGGTG	1.02 ± 0.033
TTAGATTCGG	0.997 ± 0.039
TTAGATTGCA	1.001 ± 0.0083
TTAGCAAATA	1.155 ± 0.0099
TTAGCAGGTG	2.78 ± 0.1
TTAGCATCTA	0.999 ± 0.018
TTAGCCACGC	0.9902 ± 0.0029
TTAGCGAGTT	0.979 ± 0.014
TTAGCGCTGG	1.01 ± 0.015
TTAGCGGCAG	0.9883 ± 0.0034
TTAGCGGTAT	1.08 ± 0.087
TTAGCGGTGT	1.07 ± 0.14
TTAGCGTGCG	0.953 ± 0.054
TTAGCTGCGG	0.9951 ± 0.0042
TTAGCTGGCA	1 ± 0.027
TTAGGAAAGG	1.06 ± 0.12

Sequence	switch fluorescence ratio
TTAGGAAAGT	0.9873 ± 0.0075
TTAGGACGCT	1.03 ± 0.036
TTAGGACTTT	0.975 ± 0.037
TTAGGAGAAA	1.03 ± 0.053
TTAGGATATA	1 ± 0.046
TTAGGATG	1.01 ± 0.0092
TTAGGCCAGG	1.05 ± 0.017
TTAGGGAAAA	0.983 ± 0.038
TTAGGGAATT	0.989 ± 0.046
TTAGGGGACG	0.981 ± 0.04
TTAGGGGATT	1.01 ± 0.027
TTAGGGTCGG	1 ± 0.036
TTAGGGTGGT	0.99 ± 0.018
TTAGGGTTGT	1 ± 0.023
TTAGGTGCGT	1.08 ± 0.028
TTAGGTGGGC	1.08 ± 0.021
TTAGGTTATT	0.9786 ± 0.0027
TTAGGTTGCA	0.9809 ± 0.0092
TTAGTAAGGC	1.22 ± 0.2
TTAGTAATTC	1.12 ± 0.15
TTAGTAGATT	0.991 ± 0.036
TTAGTATTGG	1.02 ± 0.019
TTAGTCCGTG	1.01 ± 0.036
TTAGTGAGGG	0.99 ± 0.042
TTAGTGGACT	1.02 ± 0.016

Sequence	switch fluorescence ratio
TTAGTGGCCC	0.99 ± 0.016
TTAGTGGCTT	0.994 ± 0.035
TTAGTGGGAG	0.966 ± 0.033
TTAGTGTGTG	0.994 ± 0.011
TTAGTTATTT	0.999 ± 0.035
TTAGTTCCTT	1.01 ± 0.024
TTAGTTGAGG	0.987 ± 0.05
TTAGTTGGAC	1.03 ± 0.038
TTAGTTGGGC	1.01 ± 0.069
TTAGTTTAAG	0.999 ± 0.017
TTAGTTTAGG	0.9824 ± 0.0096
TTAGTTTCAG	1.012 ± 0.0033
TTAGTTTGCA	1.02 ± 0.022
TTAGTTTGCT	1.01 ± 0.019
TTAGTTTTGG	1.04 ± 0.046
TTATAAAAGT	0.962 ± 0.011
TTATAAATAT	1.08 ± 0.044
TTATAAGCTT	0.997 ± 0.021
TTATAAGGTT	1.02 ± 0.023
TTATAATAG	1.039 ± 0.0073
TTATAATCCG	0.988 ± 0.031
TTATAATGGC	1.02 ± 0.08
TTATACATGG	1.07 ± 0.0024
TTATACGGAA	1.11 ± 0.057
TTATACGGAG	1.01 ± 0.025

Sequence	switch fluorescence ratio
TTATACTCTT	1.01 ± 0.026
TTATAGAATG	0.985 ± 0.038
TTATAGACAG	0.997 ± 0.034
TTATAGCCCA	1.0151 ± 0.00025
TTATAGCCTT	1.04 ± 0.046
TTATAGGAAC	1.02 ± 0.013
TTATAGGGAG	0.97261 ± 0.00039
TTATAGGTTG	0.984 ± 0.02
TTATAGGTTT	1 ± 0.019
TTATAGTCGT	1 ± 0.015
TTATAGTGGG	1 ± 0.022
TTATAGTTAT	1.001 ± 0.0029
TTATATTAAG	1.01 ± 0.031
TTATATTAGC	1 ± 0.054
TTATATTAGT	0.9919 ± 0.0056
TTATATTCTT	0.9964 ± 0.0042
TTATCACTCG	1.01 ± 0.0054
TTATCGAGAA	0.9879 ± 0.0024
TTATCGCTTG	0.9974 ± 0.003
TTATCGGGG	0.942 ± 0.053
TTATCTAAGT	1 ± 0.036
TTATCTAGTG	0.9894 ± 0.0054
TTATCTGGAA	1.06 ± 0.055
TTATCTGTTT	1.02 ± 0.028
TTATCTTAAT	1.01 ± 0.015

Sequence	switch fluorescence ratio
TTATCTTACA	0.996 ± 0.059
TTATGAAAGC	1.02 ± 0.042
TTATGAAGAT	0.963 ± 0.029
TTATGAGGCT	1.01 ± 0.013
TTATGATGGT	0.992 ± 0.018
TTATGCAAAG	1.1 ± 0.15
TTATGCATCG	0.9768 ± 0.0047
TTATGCGGAT	1.02 ± 0.015
TTATGCGGTT	0.992 ± 0.02
TTATGCTATG	1.055 ± 0.0034
TTATGCTATT	1 ± 0.022
TTATGCTTTT	1.0043 ± 0.00054
TTATGGATGT	1.03 ± 0.013
TTATGGGAAC	0.97391 ± 0.00081
TTATGGGAGA	1.04 ± 0.042
TTATGGGGAA	0.987 ± 0.015
TTATGGGGGA	1.01 ± 0.018
TTATGGGGGG	1.01 ± 0.042
TTATGGTGT	1.0044 ± 0.00076
TTATGTAAGG	0.971 ± 0.014
TTATGTATGT	0.996 ± 0.017
TTATGTGTTT	1.014 ± 0.006
TTATGTTGTT	1 ± 0.018
TTATTAAAAC	0.999 ± 0.013
TTATTAAAAG	1.2 ± 0.39

Sequence	switch fluorescence ratio
TTATTAAGTG	1 ± 0.017
TTATTAATCT	0.9974 ± 0.0049
TTATTAATT	0.997 ± 0.028
TTATTAGTTA	0.988 ± 0.011
TTATTATGCC	1.02 ± 0.061
TTATTATGTG	0.946 ± 0.022
TTATTATTCA	1.008 ± 0.0047
TTATTATTTC	0.98 ± 0.05
TTATTCAAGG	0.99 ± 0.017
TTATTCAGGA	1.01 ± 0.029
TTATTCATGT	0.984 ± 0.011
TTATTCGAGA	1.02 ± 0.034
TTATTCGGTG	0.98 ± 0.021
TTATTCGTGT	1.01 ± 0.04
TTATTCTGTT	0.976 ± 0.047
TTATTGAGTA	1.005 ± 0.0048
TTATTGCATG	0.96 ± 0.013
TTATTGCTGT	0.989 ± 0.013
TTATTGGAAA	1.012 ± 0.0059
TTATTGGGCC	1.01 ± 0.026
TTATTGGGGC	1.01 ± 0.03
TTATTGGGGT	1.01 ± 0.013
TTATTTACTA	1.04 ± 0.011
TTATTTAGCT	1.01 ± 0.017
TTATTTAGGG	0.991 ± 0.0055
